From article PMC4951027

How the values were obtained:
[1] = target: ecto-domain of integrin α5β1-Fc fusion protein; test: SPR
[2] = target: Fn N-terminal domain fragment (Fn-NTD) (human); test: SPR; conditions: domain or fragment
Sequence of Fn N-terminal domain fragment (Fn-NTD) (human) (P02751 32-290): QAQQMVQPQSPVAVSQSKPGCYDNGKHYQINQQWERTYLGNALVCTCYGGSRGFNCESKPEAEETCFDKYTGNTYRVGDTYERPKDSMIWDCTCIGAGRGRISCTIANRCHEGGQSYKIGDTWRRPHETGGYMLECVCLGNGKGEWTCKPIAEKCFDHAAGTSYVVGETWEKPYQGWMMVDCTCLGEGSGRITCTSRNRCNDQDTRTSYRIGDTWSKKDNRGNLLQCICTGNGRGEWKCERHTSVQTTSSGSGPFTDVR

Substance	Kd [1]	ka1 (first step, bivalent analyte model) [1]	ka2 (second step, bivalent analyte model) [1]	kd1 (first step, bivalent analyte model) [1]	kd2 (second step, bivalent analyte model) [1]	Kd [2]
Fn + BBK32 (BBK32-bound Fn) (from UniProt O50835 21-205) (complex)	0.17 µM	75000 M⁻¹ s⁻¹	8e-06 RU^-1s^-1	0.012 s⁻¹	0.001 s⁻¹	
GST-FnBPA-3						10 µM
